B1: aNRP2-1v3 (antibody, V domains shown)
VH: QVQLVQSGAEVKKPGASVKVSCKASGYTFTSYWMHWVRQAPGQGLEWMGAIYPGNSDTSYNQQFKGRVTMTRDTSTSTVYMELSSLRSEDTAVYYCARRGGGYFDYWGQGTLVTVSS
VL: DIQLTQSPSFLSASVGDRVTITCKASQNVGAAVAWYQQKPGKAPKLLIYSASNRYTGVPSRFSGSGSGTEFTLTISSLQPEDFATYYCQQYSSYPLLTFGGGTKVEIK
B2: aNRP2-14v9 (antibody, V domains shown)
VH: QLQLVESGGGVVQPGRSLRLSCTVSGFSLTSYGVHWVRQAPGKGLEWVGLIWSGGSTDYSPAFISRFTISEDNSKSTVYLQMNSLRAEDTAVYFCARNSYSSGYYAMDYWGQGTTVTVSS
VL: DIQLTQSPSFLSASVGDRVTITCKASQNVGHAVAWYQQKPGKAPKLLIYSASNRYTGVPSRFSGSGSGTEFTLTISSLQPEDFATYYCQQYSRYPPYTFGGGTKVEIK
B3: aNRP2-14v10 (antibody, V domains shown)
VH: QLQLVESGGGVVQPGRSLRLSCTVSGFSLTSYGVHWVRQAPGKGLEWVGLIWSGGSTDYSPAFISRFTISEDNSKSTVYLQMNSLRAEDTAVYFCARNSYSSGYYAMDYWGQGTTVTVSS
VL: DIQLTQSPSFLSASVGDRVTITCKASQNVGTAVAWYQQKPGKAPKLLIYSASNRYTGVPSRFSGSGSGTEFTLTISSLQPEDFATYYCQQRSRYPPYTFGGGTKVEIK
B4: aNRP2-11v7 (antibody, V domains shown)
VH: QVQLVQSGAEVKKPGASVKVSCKASGYTFTSFGISWVRQAPGQGLEWIGEIYPRSGNTYYNENFKGRATMTADKSTSTAYMELRSLRSDDTAVYYCARSSGYYGSTPFPYWGQGTLVTVSS
VL: DIQMTQSPSSLSASVGDRVTITCRASQDISNYLNWYQQKPGKAVKLLIYYTSRLHSGVPSRFSGSGSGTDYTFTISSLQPEDIATYYCQQGNTLPWTFGGGTKVEIK
B5: aNRP2-10v5 (antibody, V domains shown)
VH: EVQLVQSGAEVKKPGATVKISCKVSGFNIKDYYIHWVQQAPGKGLEWMGRIDVEDDETKYAPKFQGRVTITADTSTDTAYMELSSLRSEDTAVYYCATPIYGSREAWFAYWGQGTLVTVSS
VL: DIQMTQSPSSLSASVGDRVTITCTASSSVSSSYLHWYQQKPGKAPKLLIYRTSNLASGVPSRFSGSGSGTDFTLTISSLQPEDFATYYCHQYYRSPPTFGGGTKVEIK
B6: aNRP2-10v10 (antibody, V domains shown)
VH: EVQLVQSGAEVKKPGATVKISCKVSGFNIKDYYVHWVQQAPGKGLEWMGRIDVEDDETKYAPKFQGRVTITADTSTDTAYMELSSLRSEDTAVYYCATPIYGAREAWFAYWGQGTLVTVSS
VL: DIQMTQSPSSLSASVGDRVTITCTASSSVSSSYLHWYQQKPGKAPKLLIYRTSNLASGVPSRFSGSGSGTDFTLTISSLQPEDFATYYCHQYYRSPPTFGGGTKVEIK
B7: aNRP2-10v13 (antibody, V domains shown)
VH: EVQLVQSGAEVKKPGATVKISCKVSGFNIKDYYVHWVQQAPGKGLEWMGRIDVHDDETKYAPKFQGRVTITADTSTDTAYMELSSLRSEDTAVYYCATPIYGAREAWFAYWGQGTLVTVSS
VL: DIQMTQSPSSLSASVGDRVTITCTASSSVSSSYLHWYQQKPGKAPKLLIYRTSNLASGVPSRFSGSGSGTDFTLTISSLQPEDFATYYCHQYYRSPPTFGGGTKVEIK
B8: aNRP2-2v4 (antibody, V domains shown)
VH: QVQLVQSGAEVKKPGASVKVSCKASGYTFTSYWMHWVRQAPGQGLEWMGVIHPNSASTFYNERFKTRATMTVDRSSSTAYMELSSLRSEDTAVYYCSRPGTVRRSDYWGQGTTVTVSS
VL: DVVMTQSPLSLPVTLGQPASISCRSSQNIVHSTGNTYLEWYQQRPGQSPRLLIYKVSNRFSGVPDRFSGSGSGTDFTLKISRVEAEDVGVYYCFQGSHVPWTFGGGTKVEIK
B9: aNRP2-28v2/4 (antibody, V domains shown)
VH: QSVKESEGGLFKPTDTLTLTCTVSGFSLSTYSISWVRQAPGNGLEWIGIIGDAGGIIYATWAKSRSTITRSTALNTVTLKMTGLTAADTATYFCARDGTAFDIWGPGTLVTVSS
VL: AYDMTQTPASVEVVVGGTVTIKCQASQSIYSKLGWYQQKPGQPPKLLIYRASTLASGVSSRFKGSGSGTEYTLTISGVQCDDAATYYCQQDYSYINVDNIFGGGTEVVVK

The first assay deals with Human NRP2 (aa23-855) with C-terminal Avi-, Myc- and His-tags (Human) (UniProt O60462). Kind of assay: SPR (ProteOn XPR36), antibody captured on anti-human Fab-kappa, NRP2 as analyte, 1:1 Langmuir fit.
In general, Kd refers to the free concentration of one partner at which half of the binding sites on the other are occupied at equilibrium, for simple one-to-one binding. Regarding B1, the Kd is 17 nM. In other words, the double-digit nanomolar range.

B2 returned a Kd of 0.15 nM.

Take B3: the Kd turned out to be 0.17 nM.

In turn, B4 returned a Kd of 0.95 nM.

Consider B5, for which the Kd was determined as 0.2 nM.

Regarding B6, the Kd was determined as 0.029 nM.

B7 returned a Kd of 0.358 nM.

As to B8, the dissociation constant Kd was 2.7 nM.

For another assay the target is unchanged. The experiment in a line: SPR as described for Table E1 (human NRP2 antigen); the antigen for this mouse-IgG1 surrogate is not said separately.
As to B9, the equilibrium dissociation constant (Kd) stood at 0.0599 nM.

The values are drawn from US20210163606A1.
